Laboratory results as given in article PMC4379099 (PLoS Pathogens, 2015).

What was measured:
[1] = target: EFR::GFP (full-length Arabidopsis EFR with a carboxyl-terminal GFP fusion, transgenic rice) (Arabidopsis) (UniProt C0LGT6)
[2] = target: T1, EFR::XA21::GFP chimeric receptor (EFR ectodomain 1-649 fused to XA21 651-1025, carboxyl-terminal GFP, transgenic rice) (Arabidopsis | rice (Oryza longistaminata)) (UniProt C0LGT6)
T1 sequence: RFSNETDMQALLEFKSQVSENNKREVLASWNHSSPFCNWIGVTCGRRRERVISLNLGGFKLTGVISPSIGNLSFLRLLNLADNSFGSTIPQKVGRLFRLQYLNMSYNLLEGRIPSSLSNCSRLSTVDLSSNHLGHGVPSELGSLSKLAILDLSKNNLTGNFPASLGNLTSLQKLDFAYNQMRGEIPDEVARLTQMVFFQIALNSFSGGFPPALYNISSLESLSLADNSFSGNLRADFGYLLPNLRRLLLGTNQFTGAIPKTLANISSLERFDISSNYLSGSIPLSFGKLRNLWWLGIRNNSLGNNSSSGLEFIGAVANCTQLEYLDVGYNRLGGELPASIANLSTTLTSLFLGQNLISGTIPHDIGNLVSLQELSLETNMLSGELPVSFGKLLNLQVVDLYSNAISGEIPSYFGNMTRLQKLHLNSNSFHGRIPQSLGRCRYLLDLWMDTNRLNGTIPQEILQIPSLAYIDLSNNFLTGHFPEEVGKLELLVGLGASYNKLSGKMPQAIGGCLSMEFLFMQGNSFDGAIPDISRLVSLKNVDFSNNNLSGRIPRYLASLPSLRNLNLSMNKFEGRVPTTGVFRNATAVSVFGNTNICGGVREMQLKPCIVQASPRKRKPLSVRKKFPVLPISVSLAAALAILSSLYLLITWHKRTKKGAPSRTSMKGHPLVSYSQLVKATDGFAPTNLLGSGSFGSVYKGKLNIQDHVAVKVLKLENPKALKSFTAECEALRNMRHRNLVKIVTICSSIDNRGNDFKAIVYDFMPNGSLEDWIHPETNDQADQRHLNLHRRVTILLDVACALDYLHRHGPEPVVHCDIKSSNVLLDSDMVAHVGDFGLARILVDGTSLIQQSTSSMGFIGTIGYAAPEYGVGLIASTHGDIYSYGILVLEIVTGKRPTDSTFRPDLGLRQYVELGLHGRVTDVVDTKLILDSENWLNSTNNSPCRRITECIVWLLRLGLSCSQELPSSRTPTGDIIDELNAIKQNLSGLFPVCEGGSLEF

[3] = test system: MAP kinases; format: cell-based, rice

| Substance | EC50 of ROS production in mature rice leaves (dose response curve) [1] | EC50 of ROS production in mature rice leaves (dose response curve) [2] | MAP kinase activation (phospho p44/42 bands, ~47 kDa and 40 kDa) [3] |
| --- | --- | --- | --- |
| elf18_(E.coli) (from UniProt P0CE47 1-18) (peptide) | 300 pM | 300 pM | – |
| chitin | – | – | increase of two distinct bands |
